Reference: patent publication US20150313990A1

Experiments:
[1] = target: BaL Pro 2.0 (HIV-1 BaL gp160 with a proline inserted between Tyr 173 and Ala 174) on HeLa cells (HIV-1 BaL)
[2] = target: wild-type full-length HIV-1 BaL envelope glycoprotein gp160 expressed on the surface of HeLa cells (untreated) (HIV-1 BaL)
[3] = target: native HIV-1 BaL envelope trimers on the surface of persistently infected human T cells (PM1) (HIV-1 BaL)
[4] = target: native HIV-1 BaL envelope trimers on the surface of persistently infected human T cells (PM1) (HIV-1 BaL); assay: flow cytometry on infected PM1 cells pre-incubated with sCD4 5 µg/ml (competitor, two-domain by the panel header) before PG9
[5] = target: native HIV-1 BaL envelope trimers on the surface of persistently infected human T cells (PM1) (HIV-1 BaL); assay: flow cytometry on infected PM1 cells pre-incubated with control buffer, PE anti-human IgG; panel header 'PM1 HT-pg9 25'

Substance | Geom. Mean, Comp-PE-A [1] | Geom. Mean, Comp-PE-A [2] | Geom. Mean, Comp-PE-A (ΔV1V2) | MFI [3] | change of the MFI with sCD4 [4] [%] | Mean fluorescence intensity (MFI) [5]
antibody 48d (CD4-induced epitope) | 244 | 484 | 240 | – | – | –
NC human | 129 | 139 | 152 | – | – | –
monoclonal antibody PG9 (directed to the α-helix-containing region of V2; trimer-preferring) | – | – | – | 2220 | -58 | 5210
